Experimental data published in the supplement of paper PMC9112550, “Optimization of the antimicrobial peptide Bac7 by deep mutational scanning” (BMC Biology, 2022).

System: Escherichia coli TOP10
Experiment: shrunken log2 fold change of peptide-encoding DNA abundance (4.5 h post-induction vs induction); higher = less antimicrobial activity (less host growth inhibition)
Conditions: time post-induction: 4.5 h; library: site-saturation at positions 5, 18, 19, 20
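Further: peptides expressed intracellularly from a pBAD plasmid library in pooled LB shake-flask culture, induced with 0.3% L-arabinose, DNA abundance read by NGS, three biological replicates, DESeq2 with apeglm shrinkage.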

Sequence | shrunken log2 fold change
RRIRNRPPRLPRPRPRPQYDPRP | -0.0449
RRIRNRPPRLPRPRPRPRAFPRP | 0.0795
RRIRNRPPRLPRPRPRPRATPRP | 0.659
RRIRNRPPRLPRPRPRPRCRPRP | 0.104
RRIRNRPPRLPRPRPRPRDGPRP | 0.292
RRIRNRPPRLPRPRPRPRDRPRP | -0.0372
RRIRNRPPRLPRPRPRPRDTPRP | -0.457
RRIRNRPPRLPRPRPRPRECPRP | 0.0263
RRIRNRPPRLPRPRPRPRETPRP | -0.0277
RRIRNRPPRLPRPRPRPRFFPRP | -0.0927
RRIRNRPPRLPRPRPRPRFHPRP | 0.0377
RRIRNRPPRLPRPRPRPRGVPRP | 0.195
RRIRNRPPRLPRPRPRPRHEPRP | -0.0217
RRIRNRPPRLPRPRPRPRHSPRP | -0.424
RRIRNRPPRLPRPRPRPRKAPRP | 0.473
RRIRNRPPRLPRPRPRPRKRPRP | -0.0369
RRIRNRPPRLPRPRPRPRMGPRP | 0.0394
RRIRNRPPRLPRPRPRPRNFPRP | -0.132
RRIRNRPPRLPRPRPRPRNYPRP | -0.123
RRIRNRPPRLPRPRPRPRPPPRP | 1.26
RRIRNRPPRLPRPRPRPRSGPRP | -0.0312
RRIRNRPPRLPRPRPRPRSMPRP | -0.365
RRIRNRPPRLPRPRPRPRSNPRP | -0.0866
RRIRNRPPRLPRPRPRPRSSPRP | -0.145
RRIRNRPPRLPRPRPRPRTMPRP | 0.135

Sequence | shrunken log2 fold change
RRIRNRPPRLPRPRPRPRVHPRP | 0.172
RRIRNRPPRLPRPRPRPRVTPRP | 0.0249
RRIRNRPPRLPRPRPRPRWQPRP | -0.00911
RRIRNRPPRLPRPRPRPRYCPRP | -0.0932
RRIRNRPPRLPRPRPRPSAGPRP | -0.225
RRIRNRPPRLPRPRPRPSDQPRP | 0.0574
RRIRNRPPRLPRPRPRPSDYPRP | 0.075
RRIRNRPPRLPRPRPRPSENPRP | -0.296
RRIRNRPPRLPRPRPRPSEVPRP | -0.0684
RRIRNRPPRLPRPRPRPSFDPRP | -0.427
RRIRNRPPRLPRPRPRPSFQPRP | -0.274
RRIRNRPPRLPRPRPRPSGCPRP | -0.151
RRIRNRPPRLPRPRPRPSGTPRP | -0.217
RRIRNRPPRLPRPRPRPSIGPRP | -0.109
RRIRNRPPRLPRPRPRPSKVPRP | 0.0123
RRIRNRPPRLPRPRPRPSMHPRP | -0.805
RRIRNRPPRLPRPRPRPSMMPRP | -0.589
RRIRNRPPRLPRPRPRPSNAPRP | -0.343
RRIRNRPPRLPRPRPRPSNFPRP | -0.31
RRIRNRPPRLPRPRPRPSPWPRP | 0.0438
RRIRNRPPRLPRPRPRPSQFPRP | -0.16
RRIRNRPPRLPRPRPRPSRCPRP | 0.283
RRIRNRPPRLPRPRPRPSSEPRP | -0.214
RRIRNRPPRLPRPRPRPSSMPRP | -0.458
RRIRNRPPRLPRPRPRPSSRPRP | -0.164

Sequence | shrunken log2 fold change
RRIRNRPPRLPRPRPRPSVQPRP | -0.0954
RRIRNRPPRLPRPRPRPSWCPRP | -0.0906
RRIRNRPPRLPRPRPRPSYKPRP | -0.819
RRIRNRPPRLPRPRPRPSYSPRP | -0.555
RRIRNRPPRLPRPRPRPSYWPRP | -0.145
RRIRNRPPRLPRPRPRPTAIPRP | -0.072
RRIRNRPPRLPRPRPRPTCFPRP | 0.0784
RRIRNRPPRLPRPRPRPTCHPRP | -0.643
RRIRNRPPRLPRPRPRPTCWPRP | 0.696
RRIRNRPPRLPRPRPRPTDAPRP | -0.15
RRIRNRPPRLPRPRPRPTETPRP | -0.00947
RRIRNRPPRLPRPRPRPTFVPRP | -0.185
RRIRNRPPRLPRPRPRPTKLPRP | 0.0886
RRIRNRPPRLPRPRPRPTMCPRP | -0.0233
RRIRNRPPRLPRPRPRPTMGPRP | -0.0468
RRIRNRPPRLPRPRPRPTNGPRP | -0.0138
RRIRNRPPRLPRPRPRPTNIPRP | -0.312
RRIRNRPPRLPRPRPRPTPIPRP | 0.189
RRIRNRPPRLPRPRPRPTQPPRP | 0.6
RRIRNRPPRLPRPRPRPTREPRP | 0.15
RRIRNRPPRLPRPRPRPTRIPRP | -0.183
RRIRNRPPRLPRPRPRPTSVPRP | 0.184
RRIRNRPPRLPRPRPRPTTFPRP | -0.337
RRIRNRPPRLPRPRPRPTTHPRP | 0.102
RRIRNRPPRLPRPRPRPTVQPRP | -0.179

Sequence | shrunken log2 fold change
RRIRNRPPRLPRPRPRPTWCPRP | -0.0306
RRIRNRPPRLPRPRPRPVALPRP | -0.0331
RRIRNRPPRLPRPRPRPVATPRP | -0.0503
RRIRNRPPRLPRPRPRPVAWPRP | -0.01
RRIRNRPPRLPRPRPRPVCDPRP | 0.0842
RRIRNRPPRLPRPRPRPVDVPRP | -0.122
RRIRNRPPRLPRPRPRPVGTPRP | -0.073
RRIRNRPPRLPRPRPRPVHAPRP | 0.0862
RRIRNRPPRLPRPRPRPVHQPRP | -0.121
RRIRNRPPRLPRPRPRPVHTPRP | 0.0171
RRIRNRPPRLPRPRPRPVICPRP | -0.102
RRIRNRPPRLPRPRPRPVIDPRP | -0.123
RRIRNRPPRLPRPRPRPVMAPRP | 0.156
RRIRNRPPRLPRPRPRPVMHPRP | 0.077
RRIRNRPPRLPRPRPRPVMSPRP | 0.0178
RRIRNRPPRLPRPRPRPVNTPRP | -0.0908
RRIRNRPPRLPRPRPRPVPAPRP | 0.459
RRIRNRPPRLPRPRPRPVPWPRP | 0.23
RRIRNRPPRLPRPRPRPVQGPRP | 0.295
RRIRNRPPRLPRPRPRPVQTPRP | 0.12
RRIRNRPPRLPRPRPRPVREPRP | 0.249
RRIRNRPPRLPRPRPRPVSAPRP | 0.219
RRIRNRPPRLPRPRPRPVTEPRP | -0.0551
RRIRNRPPRLPRPRPRPVTMPRP | -0.514
RRIRNRPPRLPRPRPRPVTVPRP | -0.404

Sequence | shrunken log2 fold change
RRIRNRPPRLPRPRPRPVWSPRP | 0.0637
RRIRNRPPRLPRPRPRPWCDPRP | -0.365
RRIRNRPPRLPRPRPRPWDGPRP | 0.185
RRIRNRPPRLPRPRPRPWFPPRP | -0.223
RRIRNRPPRLPRPRPRPWFSPRP | -0.796
RRIRNRPPRLPRPRPRPWKAPRP | -0.0227
RRIRNRPPRLPRPRPRPWKKPRP | -0.0178
RRIRNRPPRLPRPRPRPWLDPRP | -0.029
RRIRNRPPRLPRPRPRPWLLPRP | -0.436
RRIRNRPPRLPRPRPRPWLRPRP | -0.0603
RRIRNRPPRLPRPRPRPWLYPRP | -0.00103
RRIRNRPPRLPRPRPRPWMFPRP | -0.182
RRIRNRPPRLPRPRPRPWMWPRP | -0.0133
RRIRNRPPRLPRPRPRPWNCPRP | -0.0415
RRIRNRPPRLPRPRPRPWPPPRP | 0.692
RRIRNRPPRLPRPRPRPWPWPRP | 0.0162
RRIRNRPPRLPRPRPRPWRGPRP | 0.226
RRIRNRPPRLPRPRPRPWRRPRP | -0.0717
RRIRNRPPRLPRPRPRPWTPPRP | -0.0926
RRIRNRPPRLPRPRPRPWTRPRP | -0.00821
RRIRNRPPRLPRPRPRPWWLPRP | -0.106
RRIRNRPPRLPRPRPRPWYVPRP | -0.097
RRIRNRPPRLPRPRPRPYAMPRP | 0.0743
RRIRNRPPRLPRPRPRPYDIPRP | -0.0698
RRIRNRPPRLPRPRPRPYDPPRP | -0.00192

Sequence | shrunken log2 fold change
RRIRNRPPRLPRPRPRPYDYPRP | -0.129
RRIRNRPPRLPRPRPRPYGSPRP | -0.0603
RRIRNRPPRLPRPRPRPYKFPRP | -0.286
RRIRNRPPRLPRPRPRPYLCPRP | -0.0174
RRIRNRPPRLPRPRPRPYQDPRP | -0.064
RRIRNRPPRLPRPRPRPYRAPRP | -0.183
RRIRNRPPRLPRPRPRPYRRPRP | -0.281
RRIRNRPPRLPRPRPRPYSEPRP | -2.12
RRIRNRPPRLPRPRPRPYSHPRP | -0.317
RRIRNRPPRLPRPRPRPYSYPRP | 0.000362
RRIRNRPPRLPRPRPRPYTVPRP | 0.0303
RRIRNRPPRLPRPRPRPYYCPRP | -0.0454
RRIRNRPPRLPRPRPRPYYGPRP | -0.105
RRIRNRPPRLPRPRPRPYYMPRP | -0.416
RRIRPRPPRLPRPRPRPAAAPRP | 0.56
RRIRPRPPRLPRPRPRPAACPRP | 0.103
RRIRPRPPRLPRPRPRPAEIPRP | 0.0712
RRIRPRPPRLPRPRPRPAEKPRP | 0.0387
RRIRPRPPRLPRPRPRPAEQPRP | 0.411
RRIRPRPPRLPRPRPRPAFFPRP | 0.186
RRIRPRPPRLPRPRPRPAHVPRP | 0.0491
RRIRPRPPRLPRPRPRPAKFPRP | 0.0407
RRIRPRPPRLPRPRPRPAKWPRP | 0.0878
RRIRPRPPRLPRPRPRPAMSPRP | 0.128
RRIRPRPPRLPRPRPRPAPIPRP | 0.0955
